Assay results from the RNAGym collection of RNA variant scans (doi:10.7554/elife.80360).

B1: Hammerhead Ribozyme (parent)
chain: ACCGGAUGUGCUUUCCGGUCUGAUGAGUCCGUGAGGACGAAACAG

Variants of: B1
Assay: self-cleavage, relative activity (ratio to wild type); higher = more cleavage; co-transcriptional

In order of falling self-cleavage:
1. ACCGUAUGUGCUUUACGGUCUGAUGAGUCCGUGAGGACGAAACAG  1.43
2. ACCGUAUGUACUUUCCGGUCUGAUGAGUCCGUGAGGACGAAACAG  1.29
3. ACCGCAUGUGCUAUCCGGUCUGAUGAGUCCGUGAGGACGAAACAG  1.25
4. ACCGUAUGUGCUUUUCGGUCUGAUGAGUCCGUGAGGACGAAACAG  1.17
5. ACCGUAUGUGCUUUGCGGUCUGAUGAGUCCGUGAGGACGAAACAG  1.15
6. ACCGUAUGUUCUUUCCGGUCUGAUGAGUCCGUGAGGACGAAACAG  1.15
7. ACCGUAUGUGCUUUCAGGUCUGAUGAGUCCGUGAGGACGAAACAG  1.11
8. ACCGCAUGUGCUUUCCGGUCUGAUGAGUCCUUGAGGACGAAACAG  1.02
9. ACCGUAUGUGCUUUCCGGUCUGAUGAGUCUGUGAGGACGAAACAG  0.967
10. ACCGUAUCUGCUUUCCGGUCUGAUGAGUCCGUGAGGACGAAACAG  0.942
11. ACCGUAUGUGCUUUCCGGUCUGAUGAGUCCGUGAGGACGAAACAG  0.934
12. ACCGCAUGUGCUUGCCGGUCUGAUGAGUCCGUGAGGACGAAACAG  0.929
13. ACCGUAUGUGAUUUCCGGUCUGAUGAGUCCGUGAGGACGAAACAG  0.919
14. ACCGUAUGUGCUUUCCGGUCUGAUGAGUCCGUGAGGACGAAACGG  0.918
15. ACCGUAUGUGCUUUCUGGUCUGAUGAGUCCGUGAGGACGAAACAG  0.894
16. ACCGUAUGUGCUUUCGGGUCUGAUGAGUCCGUGAGGACGAAACAG  0.883
17. ACCGUAUGUGCUUUCCGGUCUGAUGAGUCCGUGGGGACGAAACAG  0.882
18. ACCGCAAGUGCUUUCCGGUCUGAUGAGUCCGUGAGGACGAAACAG  0.874
19. ACCGCAUGUGCUUUCCGGUCUGAUGAGUCCAUGAGGACGAAACAG  0.855
20. ACCGCAUGUGCUGUCCGGUCUGAUGAGUCCGUGAGGACGAAACAG  0.85
21. ACCGCAUGUGCUUACCGGUCUGAUGAGUCCGUGAGGACGAAACAG  0.845
22. ACCGUAUGUGCUUUCCGGUCUGAUGAGUCCGUGCGGACGAAACAG  0.833
23. ACCGUAUGUGCUUUCCGGUCUGAUGAGUCCGUGUGGACGAAACAG  0.83
24. ACCGUAUGUGGUUUCCGGUCUGAUGAGUCCGUGAGGACGAAACAG  0.815
25. ACCGUAUUUGCUUUCCGGUCUGAUGAGUCCGUGAGGACGAAACAG  0.81
26. ACCGUAUGUGCUUUCCGGUCUGAUGAGUCAGUGAGGACGAAACAG  0.795
27. ACCGCAUGUGCAUUCCGGUCUGAUGAGUCCGUGAGGACGAAACAG  0.788
28. ACCGCAUGUGCUUUCCGGUCUGAUGAGUCCGUAAGGACGAAACAG  0.776
29. ACCGCAUGUGCGUUCCGGUCUGAUGAGUCCGUGAGGACGAAACAG  0.773
30. ACCGUAUAUGCUUUCCGGUCUGAUGAGUCCGUGAGGACGAAACAG  0.748
31. ACCGCAUGUGCUUUCCGGUCUGAUGAGUCCGUUAGGACGAAACAG  0.736
32. ACCGCACGUGCUUUCCGGUCUGAUGAGUCCGUGAGGACGAAACAG  0.72
33. ACCGUAUGUCCUUUCCGGUCUGAUGAGUCCGUGAGGACGAAACAG  0.708
34. ACCGCAUGUGCCUUCCGGUCUGAUGAGUCCGUGAGGACGAAACAG  0.703
35. ACCGUAUGUGCUUUCCGGUCUGAUGAGUUCGUGAGGACGAAACAG  0.682
36. ACCGCAUGUGCUCUCCGGUCUGAUGAGUCCGUGAGGACGAAACAG  0.681
37. ACCGCAUGUGCUUUCCGGUCUGAAGAGUCCGUGAGGACGAAACAG  0.648
38. ACCGUGUGUGCUUUCCGGUCUGAUGAGUCCGUGAGGACGAAACAG  0.644
39. ACCGCAUGCGCUUUCCGGUCUGAUGAGUCCGUGAGGACGAAACAG  0.63
40. ACCGUUUGUGCUUUCCGGUCUGAUGAGUCCGUGAGGACGAAACAG  0.63
41. ACCGCAUGUGCUUUCCGGUCUGACGAGUCCGUGAGGACGAAACAG  0.625
42. ACCGCAUGUGCUUUCCGGUCUGAUGAGUCCCUGAGGACGAAACAG  0.613
43. ACCGCAGGUGCUUUCCGGUCUGAUGAGUCCGUGAGGACGAAACAG  0.611
44. ACCGCAUGAGCUUUCCGGUCUGAUGAGUCCGUGAGGACGAAACAG  0.595
45. ACCGUAUGUGCUUUCCGGUUUGAUGAGUCCGUGAGGACGAAACAG  0.595
46. ACCGCAUGUGCUUUCCGGUCUGAUGAGUCCGUCAGGACGAAACAG  0.58
47. ACCGCAUGUGCUUUCCGGUCUGAUGAGUCCGCGAGGACGAAACAG  0.559
48. ACCGCAUGUGCUUUCCGGUCUGAUGAGUCCGAGAGGACGAAACAG  0.549
49. ACCGUAUGUGCUUUCCGGUCUGAUGAGUCCGUGAGGACGAAACCG  0.515
50. ACCGCAUGUGCUUUCCGGUCCGAUGAGUCCGUGAGGACGAAACAG  0.507
51. ACCGCAUGUGCUUUCCGGUCUGAGGAGUCCGUGAGGACGAAACAG  0.499
52. ACCGUAUGUGCUUUCCGGUCUGAUGAGUCCGUGAGGAUGAAACAG  0.498
53. ACCGCAUGGGCUUUCCGGUCUGAUGAGUCCGUGAGGACGAAACAG  0.467
54. ACCGUAUGUGCUUUCCGGUCUGAUGAGUCCGUGAGGGCGAAACAG  0.46
55. ACCGUAUGUGUUUUCCGGUCUGAUGAGUCCGUGAGGACGAAACAG  0.458
56. ACCGCAUGUGCUUUCCGGUCUGAUGAGUCCGGGAGGACGAAACAG  0.452
57. ACCGUAUGUGCUUUCCGGUCUGAUGUGUCCGUGAGGACGAAACAG  0.449
58. ACCGUAUGUGCUUUCCGGUCUGAUGAGUCGGUGAGGACGAAACAG  0.445
59. ACCGUAUGUGCUUUCCGGUCUGAUGAGUGCGUGAGGACGAAACAG  0.434
60. ACCGUAUGUGCUUUCCGGUCUGAUGAGUCCGUGAGGAAGAAACAG  0.431
61. ACCGCAUGUGCUUCCCGGUCUGAUGAGUCCGUGAGGACGAAACAG  0.429
62. ACCGUAUGUGCUUUCCGGUCUGAUGAGUCCGUGAGGUCGAAACAG  0.417
63. ACCGUAUGUGCUUUCCGGUCUGAUGAGUCCGUGAGGCCGAAACAG  0.403
64. ACCGUAUGUGCUUUCCGGUCUGAUGAGUCCGUGAGGACGACACAG  0.402
65. ACCGUAUGUGCUUUCCGGUCUGAUGAGUACGUGAGGACGAAACAG  0.402
66. ACCGCAUGUGCUUUCCGGUCUGAUGAGUCCGUGAGGACGAAACAC  0.397
67. ACCGUAUGUGCUUUCCGGUCUGAUGAGUCCGUGAGGACGAAACUG  0.391
68. ACCGCAUGUGCUUUCCGGUCUGAUGAGUCCGUGAGGACGAAACAA  0.384
69. ACCGCAUGUGCUUUCCGGUCUGAUGAGUCCGUGAGGACGAAACAU  0.382
70. ACCGCAUGUGCUUUCCGGUCUGAUGAGUCCGUGAUGACGAAACAG  0.376
71. ACCGCAUGUGCUUUCCGGUCUGAUGAGACCGUGAGGACGAAACAG  0.376
72. ACCGUAUGUGCUUUCCGGUCUGAUGAGUCCGUGAGGACGCAACAG  0.375
73. ACCGUAUGUGCUUUCCGGUCUGAUGAGUCCGUGAGGACGAAAUAG  0.371
74. ACCGCAUGUGCUUUCCGGUCGGAUGAGUCCGUGAGGACGAAACAG  0.367
75. ACCGCAUGUGCUUUCCGGUCUGAUGAGUCCGUGAAGACGAAACAG  0.362
76. ACCGCAUGUGCUUUCCGGUCUGAUGAGUCCGUGAGCACGAAACAG  0.357
77. ACCGUAUGUGCUUUCCGGUCUGAUGCGUCCGUGAGGACGAAACAG  0.357
78. ACCGUAUGUGCUUUCCGGUCUGUUGAGUCCGUGAGGACGAAACAG  0.356
79. ACCGUAUGUGCUUUCCGGUCUGAUGAGUCCGUGAGGACGAAGCAG  0.352
80. ACCGUAUGUGCUUUCCGGUCUGAUGAGUCCGUGAGGACGAAAAAG  0.352
81. ACCGUAUGUGCUUUCCUGUCUGAUGAGUCCGUGAGGACGAAACAG  0.351
82. ACCGCAUGUGCUUUCCGGUCUGAUGAGUCCGUGAGAACGAAACAG  0.35
83. ACCGUAUGUGCUUUCCGGUCUGAUGAGUCCGUGAGGACGGAACAG  0.35
84. ACCGUAUGUGCUUUCCGGUCUGAUGAGUCCGUGAGGAGGAAACAG  0.349
85. ACCGCAUGUGCUUUCCGGUCUGAUGAGGCCGUGAGGACGAAACAG  0.345
86. ACCGCAUGUGCUUUCCGGACUGAUGAGUCCGUGAGGACGAAACAG  0.344
87. ACCGUAUGUGCUUUCCGUUCUGAUGAGUCCGUGAGGACGAAACAG  0.343
88. ACCGUAUGUGCUUUCCGGUCUGCUGAGUCCGUGAGGACGAAACAG  0.339
89. ACCGUAUGUGCUUUCCAGUCUGAUGAGUCCGUGAGGACGAAACAG  0.337
90. ACCGUCUGUGCUUUCCGGUCUGAUGAGUCCGUGAGGACGAAACAG  0.336
91. ACCGUAUGUGCUUUCCGGUCUGAUGAGUCCGUGAGGACGAAAGAG  0.335
92. ACCGUAUGUGCUUUCCGAUCUGAUGAGUCCGUGAGGACGAAACAG  0.334
93. ACCGUAUGUGCUUUCCGGUGUGAUGAGUCCGUGAGGACGAAACAG  0.333
94. ACCGUAUGUGCUUUCCGGUCUGAUGGGUCCGUGAGGACGAAACAG  0.332
95. ACCGUAUGUGCUUUCCGGUCUGAUGAGUCCGUGAGGACGAUACAG  0.332
96. ACCGCAUGUGCUUUCCGGUCUGAUGAGUCCGUGAGUACGAAACAG  0.33
97. ACCGCAUGUGCUUUCCGGUCUGAUGAGCCCGUGAGGACGAAACAG  0.33
98. ACCGUAUGUGCUUUCCGCUCUGAUGAGUCCGUGAGGACGAAACAG  0.33
99. ACCGUAUGUGCUUUCCGGUCUGAUGAGUCCGUGAGGACGAACCAG  0.327
100. ACCGCAUGUGCUUUCCGGUCUGAUGAGUCCGUGACGACGAAACAG  0.324
101. ACCGUAUGUGCUUUCCGGUCUGAUGAGUCCGUGAGGACGAAUCAG  0.323
102. ACCGCAUGUGCUUUCCGGUCUGAUGAUUCCGUGAGGACGAAACAG  0.321
103. ACCGUAUGUGCUUUCCGGUCUGAUGAGUCCGUGAGGACGUAACAG  0.319
104. ACCGUAUGUGCUUUCCGGUCUGAUGAGUCCGUGAGGACGAGACAG  0.316
105. ACCGCAUGUGCUUUCCGGUCUGAUGAGUCCGUGAGGACCAAACAG  0.312
106. ACCGUAUGUGCUUUCCCGUCUGAUGAGUCCGUGAGGACGAAACAG  0.309
107. ACCGCAUGUGCUUUCCGGUCAGAUGAGUCCGUGAGGACGAAACAG  0.307
108. ACCGUAUGUGCUUUCCGGUAUGAUGAGUCCGUGAGGACGAAACAG  0.292
109. ACCGUAUGUGCUUUCCGGUCUGGUGAGUCCGUGAGGACGAAACAG  0.287
110. ACCGCAUGUGCUUUCCGGGCUGAUGAGUCCGUGAGGACGAAACAG  0.281
111. ACCGCAUGUGCUUUCCGGCCUGAUGAGUCCGUGAGGACGAAACAG  0.269
112. ACCGUAUGUGCUUUCCGGUCUAAUGAGUCCGUGAGGACGAAACAG  0.269
113. ACCGCAUGUGCUUUCCGGUCUGAUGAGUCCGUGAGGACAAAACAG  0.252
114. ACCGCAUGUGCUUUCCGGUCUGAUGAGUCCGUGAGGACUAAACAG  0.251
